Laboratory results published in article doi:10.1101/2021.07.31.454588.

Target: mCherry-LacRnls-IE1 1–540 (human herpesvirus 6B (HHV-6B))
Assay: LacO/LacR tethering assay

Question: “NBS1 (nibrin, NBN), endogenous (from UniProt O60934 1-754) (natural protein)” was tested. Which percent of mCherry-LacRnls fusion foci colocalized with NBS1 at the LacO array did it give?
Answer: 81%
